This note sets out measurements from patent US20200323973A1 (INSTITUTE FOR SYSTEMS BIOLOGY, published 2020).

Bridge positions count the residues as written; N and C are the ends. Ends that are not written are not given here. * marks the point of attachment. Biotin = O=C1N[C@H]2[C@H](CS[C@H]2CCCCC(=O)*)N1

Test [1] concerns the target recombinant full-length MrkA protein with an N-terminal 6xHis-SUMO-tag (MyBiosource, MBS1248970) (Klebsiella pneumoniae) (UniProt P12267). Description: sandwich ELISA 2, 25 nM MrkA; PCC immobilised. Background: An ELISA detects its analyte on a solid surface through an enzyme-linked reagent.
Test [2] shares this target. Description: sandwich ELISA 1, [MrkA] N/A; reference compound, ratio to itself.
Test [3] shares this target. Description: sandwich ELISA 2, 25 nM MrkA; reference compound, ratio to itself.
Test [4] shares this target. Description: sandwich ELISA 3, 50 nM MrkA; reference compound, ratio to itself.
For test [5] the target is unchanged. Description: sandwich ELISA 5, 25 nM MrkA; reference compound, ratio to itself.
Test [6] has the same target. Put plainly: sandwich ELISA 6, 25 nM MrkA; reference compound, ratio to itself.
For test [7] the target is unchanged. Description: sandwich ELISA 4, 100 nM MrkA; reference compound, ratio to itself.
For test [8] the target is unchanged. Description: ELISA with the PCC immobilised, full-length recombinant MrkA (FIG. 3A).
For test [9] the target is unchanged. Description: sandwich ELISA: biotinylated PCC on NeutrAvidin plate, His-SUMO-MrkA titrated, anti-His detection (FIG. 3A).
For test [10] the target is unchanged. Description: sandwich ELISA 3, 50 nM MrkA; PCC immobilised.
Test [11] shares this target. Put plainly: sandwich ELISA 6, 25 nM MrkA; PCC immobilised.
Test [12] has the same target. Put plainly: ELISA with the PCC immobilised, full-length recombinant MrkA.
For test [13] the target is unchanged. Description: sandwich ELISA 4, 100 nM MrkA; PCC immobilised.
The target of test [14] is T1, MrkA on Klebsiella pneumoniae cells (assembled into type 3 fimbriae) (Klebsiella pneumoniae, UniProt P12267 23-202).
T1 construct: whole, on cells; One molecule is used for all three strains; The strain is named under assay; MrkA oligomerises in the fimbriae and the number of copies is not fixed; also called MrkA-expressing K. pneumoniae cells; wild type KPPR1 (ATCC 43816)
T1 sequence: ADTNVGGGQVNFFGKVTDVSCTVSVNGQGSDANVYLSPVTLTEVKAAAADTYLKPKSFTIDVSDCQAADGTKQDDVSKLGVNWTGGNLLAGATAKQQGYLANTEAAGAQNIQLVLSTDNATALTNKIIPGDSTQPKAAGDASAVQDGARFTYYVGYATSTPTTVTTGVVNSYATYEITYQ
Description: flow cytometry on K. pneumoniae BAA 2146, Alexafluor 488 anti-DNP detection.

Another test addresses T2, SynEp 1 (SEQ ID NO:38) (Klebsiella pneumoniae, also: one residue replaced by azidolysine, position not given here).
T2 peptide: {Biotin-peg5}-FFGKVTDVSCTVSV
Put plainly: sandwich ELISA: biotinylated SynEp immobilised, cy(LLFFF)-DNP titrated, anti-DNP detection; background biotin-PEG6 subtracted.

For test [15], the target named is T1, MrkA on Klebsiella pneumoniae cells …. Description: whole-cell ELISA on two strains of MrkA-expressing K. pneumoniae (FIG. 5C); biotinylated PCC, SAv-HRP.
The target is the same in test [16]. Description: whole-cell ELISA, biotinylated PCC and SAv-HRP; KPPR1 (FIG. 5B); also two MrkA-expressing strains at 5 µM (FIG. 5C).
For test [17] the target is unchanged. Put plainly: whole-cell ELISA on wild type KPPR1 (ATCC 43816) grown in G-CAA; biotinylated PCC, SAv-HRP.

Take “biotinylated cy(LLFFA) (SEQ ID NO:11) (peptide)”: the Relative affinity (ratio of ELISA signal to cy(LLFFF)) in [1] was found to be 0.04. The term EC50 denotes the midpoint of the concentration-response curve. As to “biotinylated cy(LLFFF) (SEQ ID NO:5) (peptide)”, the Relative affinity (ratio of ELISA signal to cy(LLFFF)) in test [2], in test [3], in test [4], in test [5], in test [6] and in [7] was 1 each time. In addition, the concentration giving a half-maximal response (EC50) in test [8] was 230 nM; in test [9] it was 50 nM. Regarding cy(AAFFF) (SEQ ID NO:14) (peptide), the Relative affinity (ratio of ELISA signal to cy(LLFFF)) in [10] was 0.15. cy(ALFFF) (SEQ ID NO:7) (peptide): in test [1], the Relative affinity (ratio of ELISA signal to cy(LLFFF)) was found to be 0.53.

cy(DLFFF) (SEQ ID NO:12) (peptide): the Relative affinity (ratio of ELISA signal to cy(LLFFF)) in test [11] came out at 0.21. For cy(GVHRL) (SEQ ID NO:57) (peptide), the affinity (likely) in [12] amounted to 1 µM. As for cy(HLFFF) (SEQ ID NO:13) (peptide), the Relative affinity (ratio of ELISA signal to cy(LLFFF)) in test [11] came out at 0.81.

On to cy(LAFFF) (SEQ ID NO:8) (peptide), for which, in [1], the Relative affinity (ratio of ELISA signal to cy(LLFFF)) is 0.26. For cy(LLAFF) (SEQ ID NO:9) (peptide), in [1], the Relative affinity (ratio of ELISA signal to cy(LLFFF)) amounted to 0.59.

Turning to cy(LLFAF) (SEQ ID NO:10) (peptide), the Relative affinity (ratio of ELISA signal to cy(LLFFF)) in test [1] was determined as 0.1. Consider cy(TTFFF) (SEQ ID NO:35) (peptide), for which the Relative affinity (ratio of ELISA signal to cy(LLFFF)) in [13] came out at 0.04. For the same molecule, the affinity (likely) in test [12] was determined as 1 µM. As for cy(YRHLG) (SEQ ID NO:56) (peptide), in test [12], the affinity (likely) worked out at 1 µM.

B1: cy(LLFFF)-DNP (SEQ ID NO:5) (peptide)
peptide: LLFFF-azidolysine
modifications: triazole N-C; not fully specified (N-terminus); printed as cy(LLFFF)-DNP; also: linker peg5 or peg5-peg5 by assay
notes: also called DNP-conjugated cy(LLFFF); lead AR-PCC
Regarding B1, the results for the binding result (in test [14]; with SynEp 1 (SEQ ID NO:38)) were “binds” and “no binding (tested: 500 nM)”, respectively.

B2: biotinylated dummy ligand cy(HNGPT) (SEQ ID NO:18) (peptide)
peptide: HNGPT
modifications: macrocycle: propargylglycine before and azidolysine after the printed residues, joined by a triazole (cy); N-terminal biotin-peg5 tag
On to B2, for which the binding result in test [15] is “no binding”.

B3: biotinylated cy(LLFFF) (SEQ ID NO:5) (peptide)
peptide: LLFFF-azidolysine
modifications: triazole N-C; not fully specified (N-terminus); also: biotin-PEG tag by assay: Bio-Peg10-peg10, Bio-peg10 or Bio-peg5
notes: The biotin-PEG tags differ between assays; They are non-peptide, so one molecule is used and the tag is named under assay; also called cy(X-LLFFF-Z)
Regarding B3, in test [16], the binding result is “binds”.

B4: biotinylated cy(LLFFA) (SEQ ID NO:11) (peptide)
peptide: LLFFA-propargylglycine
modifications: triazole N-C; not fully specified (N-terminus); printed as cy(Z-LLFFA-X); also: biotin-PEG tag: Bio-peg10 or biotin-peg5 (whole-cell ELISA)
notes: also called Compound Number 6; cy(Z-LLFFA-X)
With B4, in test [17], the binding result is “no binding (tested: 5 µM down to 5 nM)”.
